# Data taken from patent US20240192215A1 (E AND S HEALTHCARE, published 2024).
# T1: Peptide_026
# T1 peptide: TAFQEALDAAGDKLV
# T2: Peptide_029
# T2 peptide: QEALDAAGDKLVVVD
# T3: Peptide_031
# T3 peptide: ALDAAGDKLVVVDFS
# T4: Peptide_033
# T4 peptide: DAAGDKLVVVDFSAT
# T5: Peptide_034
# T5 peptide: AAGDKLVVVDFSATW
# T6: Peptide_036
# T6 peptide: GDKLVVVDFSATWCG
# T7: Peptide_038
# T7 peptide: KLVVVDFSATWCGPC
# T8: Peptide_041
# T8 peptide: VVDFSATWCGPCKMI
# T9: Peptide_043
# T9 peptide: DFSATWCGPCKMIKP
# T10: Peptide_061
# T10 peptide: SLSEKYSNVIFLEVD
# T11: Peptide_063
# T11 peptide: SEKYSNVIFLEVDVD
# T12: Peptide_065
# T12 peptide: KYSNVIFLEVDVDDC
# T13: Peptide_066
# T13 peptide: YSNVIFLEVDVDDCQ
# T14: Peptide_070
# T14 peptide: IFLEVDVDDCQDVAS
# T15: Peptide_073
# T15 construct: also called EVDVDDCQDVASECE
# T15 peptide: EVDVDDCQDVASECE
# T16: Peptide_076
# T16 peptide: VDDCQDVASECEVKC
# T17: Peptide_083
# T17 peptide: ASECEVKCMPTFQFF
# T18: Peptide_001
# T18 peptide: VATAADVHSQHHHHH
# T19: Peptide_091
# T19 peptide: MPTFQFFKKGQKVGE
# T20: Peptide_098
# T20 peptide: KKGQKVGEFSGANKE
# T21: Peptide_099
# T21 peptide: KGQKVGEFSGANKEK
# T22: Peptide_100
# T22 peptide: GQKVGEFSGANKEKL
# T23: Peptide_101
# T23 peptide: QKVGEFSGANKEKLE
# T24: Peptide_104
# T24 peptide: GEFSGANKEKLEATI
# T25: Peptide_105
# T25 construct: also called EFSGANKEKLEATIN
# T25 peptide: EFSGANKEKLEATIN
# T26: Peptide_108
# T26 peptide: GANKEKLEATINELV
# T27: Peptide_006
# T27 peptide: DVHSQHHHHHHHHVK
# T28: Peptide_004 (human)
# T28 construct: 15-mer on microarray; not native form, recombinant insert region
# T28 peptide: AADVHSQHHHHHHHH
# B1: monoclonal antibody B264 (antibody, mouse IgG1, kappa, V domains shown)
# VH: QVQLQQSGAELARPGASVKMSCKASGYTFTSYTMHWVKQRPGQGLEWIGYINPTSDYTNYNQKFKDKATLTADKSSSTAYMQLSSLTSEDSAVYFCASEGGFLYYFDYWGQGTTLTVSS
# VL: DVLMTQTPLSLPVSLGDQASISCRSSQSIVHSNGNTYLEWYLQKPGQSPKLLIYKVSNRFSGVPDRFSGSGSGTDFTLKISRVEAEDLGVYYCFQGSHVPYTFGGGTKLEIKR
# notes: also called AB264; B264 (Trx1-mIgG1)
# Tests used:
# Test in all cases: peptide microarray, anti-mouse IgG DyLight 650, MMC2 heatmap (Example 17)
# Peptide_026 = molecular target: T1, Peptide_026
# Method: (§1) 5, 1, 0.2, 0.04, 0.008 and 0.0016 μg/mL serial dilutions were incubated on a single multi-well microarray slide at 30° C. for 1 hour. The slide includes 21 individual mini-arrays (one mini-array per sample dilution).
# (§2) DyLight 650 was used as a label. False-positive binding to a peptide was evaluated by performing one additional control incubation in which only a secondary antibody was applied on the same microarray slide. Before performing each step, the microarrays were washed with a washing buffer.
# (§3) To visualize the obtained results and compare binding regions across individual cultures, as shown in FIGS. 21A to 21D, heatmap diagrams were calculated. In FIGS. 21A to 21D, the fluorescence intensity is expressed in a color-coded manner, white indicates no binding, and red indicates strong binding. For all evaluations, the MMC2-value of the average pixel fluorescence for each peptide was calculated.
# Peptide_029 = molecular target: T2, Peptide_029
# Method: as §1, §2, §3
# Peptide_031 = molecular target: T3, Peptide_031
# Method: as §1, §2, §3
# Peptide_033 = molecular target: T4, Peptide_033
# Method: as §1, §2, §3
# Peptide_034 = molecular target: T5, Peptide_034
# Method: as §1, §2, §3
# Peptide_036 = molecular target: T6, Peptide_036
# Method: as §1, §2, §3
# Peptide_038 = molecular target: T7, Peptide_038
# Method: as §1, §2, §3
# Peptide_041 = molecular target: T8, Peptide_041
# Method: as §1, §2, §3
# Peptide_043 = molecular target: T9, Peptide_043
# Method: as §1, §2, §3
# Peptide_061 = molecular target: T10, Peptide_061
# Method: as §1, §2, §3
# Peptide_063 = molecular target: T11, Peptide_063
# Method: as §1, §2, §3
# Peptide_065 = molecular target: T12, Peptide_065
# Method: as §1, §2, §3
# Peptide_066 = molecular target: T13, Peptide_066
# Method: as §1, §2, §3
# Peptide_070 = molecular target: T14, Peptide_070
# Method: as §1, §2, §3
# Peptide_073 = molecular target: T15, Peptide_073
# Method: as §1, §2, §3
# Peptide_076 = molecular target: T16, Peptide_076
# Method: as §1, §2, §3
# Peptide_083 = molecular target: T17, Peptide_083
# Method: as §1, §2, §3
# Peptide_001 = molecular target: T18, Peptide_001
# Method: as §1, §2, §3
# Peptide_091 = molecular target: T19, Peptide_091
# Method: as §1, §2, §3
# Peptide_098 = molecular target: T20, Peptide_098
# Method: as §1, §2, §3
# Peptide_099 = molecular target: T21, Peptide_099
# Method: as §1, §2, §3
# Peptide_100 = molecular target: T22, Peptide_100
# Method: as §1, §2, §3
# Peptide_101 = molecular target: T23, Peptide_101
# Method: as §1, §2, §3
# Peptide_104 = molecular target: T24, Peptide_104
# Method: as §1, §2, §3
# Peptide_105 = molecular target: T25, Peptide_105
# Method: as §1, §2, §3
# Peptide_108 = molecular target: T26, Peptide_108
# Method: as §1, §2, §3
# Peptide_006 = molecular target: T27, Peptide_006
# Method: as §1, §2, §3
# Peptide_004 = molecular target: T28, Peptide_004
# Method: as §1, §2, §3
binder,measurement,setting,value
B1,binding result,Peptide_026,no binding (tested: 5 ug/mL)
same,binding result,Peptide_029,no binding (tested: 5 ug/mL)
same,binding result,Peptide_031,no binding (tested: 5 ug/mL)
same,binding result,Peptide_033,no binding (tested: 5 ug/mL)
same,binding result,Peptide_034,no binding (tested: 5 ug/mL)
same,binding result,Peptide_036,no binding (tested: 5 ug/mL)
same,binding result,Peptide_038,binds
same,binding result,Peptide_041,no binding (tested: 5 ug/mL)
same,binding result,Peptide_043,no binding (tested: 5 ug/mL)
same,binding result,Peptide_061,no binding (tested: 5 ug/mL)
same,binding result,Peptide_063,no binding (tested: 5 ug/mL)
same,binding result,Peptide_065,no binding (tested: 5 ug/mL)
same,binding result,Peptide_066,no binding (tested: 5 ug/mL)
same,binding result,Peptide_070,no binding (tested: 5 ug/mL)
same,binding result,Peptide_073,no binding (tested: 5 ug/mL)
same,binding result,Peptide_076,no binding (tested: 5 ug/mL)
same,binding result,Peptide_083,no binding (tested: 5 ug/mL)
same,binding result,Peptide_001,no binding (tested: 5 ug/mL)
same,binding result,Peptide_091,no binding (tested: 5 ug/mL)
same,binding result,Peptide_098,no binding (tested: 5 ug/mL)
same,binding result,Peptide_099,no binding (tested: 5 ug/mL)
same,binding result,Peptide_100,no binding (tested: 5 ug/mL)
same,binding result,Peptide_101,no binding (tested: 5 ug/mL)
same,binding result,Peptide_104,no binding (tested: 5 ug/mL)
same,binding result,Peptide_105,no binding (tested: 5 ug/mL)
same,binding result,Peptide_108,no binding (tested: 5 ug/mL)
same,binding result,Peptide_006,binds
same,binding result,Peptide_004,no binding (tested: 5 ug/mL)
